Results on one protein are retold here after publication PMC4322223, “Biochemical and structural characterization of a thermostable β-glucosidase from Halothermothrix orenii for galacto-oligosaccharide synthesis” (Applied Microbiology and Biotechnology, 2014).

What all share (experiment): purified protein
Holding throughout (details): 65 °C, 20 mM HEPES, 150 mM NaCl, pH 7.0

Substrate in series [1]: O=[N+]([O-])c1ccccc1O[C@@H]1O[C@H](CO)[C@@H](O)[C@H](O)[C@H]1O
The class given is biochemical, Halothermothrix orenii.

Substrate in series [2]: O=[N+]([O-])c1ccccc1O[C@@H]1O[C@H](CO)[C@H](O)[C@H](O)[C@H]1O
The class given is biochemical, Halothermothrix orenii.

Substrate in series [3]: O=[N+]([O-])c1ccc(O[C@@H]2O[C@H](CO)[C@@H](O)[C@H](O)[C@H]2O)cc1
Substrate in series [4]: O=[N+]([O-])c1ccc(O[C@@H]2O[C@H](CO)[C@H](O)[C@H](O)[C@H]2O)cc1

B1: HoBGLA (Halothermothrix orenii H 168) (protein)
chain: MAKIIFPEDFIWGAATSSYQIEGAFNEDGKGESIWDRFSHTPGKIENGDTGDIACDHYHLYREDIELMKEIGIRSYRFSTSWPRILPEGKGRVNQKGLDFYKRLVDNLLKANIRPMITLYHWDLPQALQDKGGWTNRDTAKYFAEYARLMFEEFNGLVDLWVTHNEPWVVAFEGHAFGNHAPGTKDFKTALQVAHHLLLSHGMAVDIFREEDLPGEIGITLNLTPAYPAGDSEKDVKAASLLDDYINAWFLSPVFKGSYPEELHHIYEQNLGAFTTQPGDMDIISRDIDFLGINYYSRMVVRHKPGDNLFNAEVVKMEDRPSTEMGWEIYPQGLYDILVRVNKEYTDKPLYITENGAAFDDKLTEEGKIHDEKRINYLGDHFKQAYKALKDGVPLRGYYVWSLMDNFEWAYGYSKRFGLIYVDYENGNRRFLKDSALWYREVIEKGQVEAN
notes: full length, 451 residues, GH1; pNIC28-Bsa4 N-terminal His6-TEV tag cut off with TEV protease; expressed in E. coli BL21(DE3); 53 kDa
Turning to B1, the Km in series [1] was 0.386 ± 0.002 mM; in series [2], 6.35 ± 0.8 mM; in series [3], 0.296 ± 0.001 mM; in series [4] it was 8.34 ± 0.61 mM. For the same protein, the kcat in series [1] amounted to 94.6 s⁻¹; in series [2], 288 s⁻¹; in series [3], 55.2 s⁻¹; in series [4], 156 s⁻¹. Also, the kcat/Km worked out at 245000 M⁻¹ s⁻¹ in series [1], 45300 M⁻¹ s⁻¹ in series [2], 187000 M⁻¹ s⁻¹ in series [3] and 18700 M⁻¹ s⁻¹ in series [4].
